According to patent US20090136507A1 (published 2009):

Assays:
Assay in all cases: yeast two-hybrid screens, LRP5 cytoplasmic domain bait against brain, HeLa and TE85 prey cDNA libraries
[1] = target: T1, alpha-actinin (ACTN1) (Homo sapiens (Human), UniProt P12814 1-892, limits assumed)
T1 construct: Yeast two-hybrid prey; also called α-actinin
Description: (§1) In order to identify cytoplasmic Zmax1 (LRP5) signaling pathways, the cytoplasmic domain of Zmax1 (LRP5) was subcloned into two bait vectors. The first vector was pDBleu, which was used to screen a brain, and Hela prey cDNA library cloned into the vector pPC86 (Clontech). The second bait vector used was pDBtrp, which was used to screen a cDNA prey library derived from the TE85 osteosarcoma cell line in vector pOP46. Another suitable vector which is widely available, is p86 (Gibco, Iest™ System). Standard techniques known to those skilled in the art were used as described in Fields and Song, 1989 Nature 340: 245-246; U.S. Pat. No. 5,283,173 by Fields and Song; Johnston, 1987 Microbiol. Rev. 51: 458-476; Keegan et al., 1986 Science 231: 699-704; Durfee et al., 1993 Genes Dev. 7: 555-569; Chien et al., 1991 Proc. Natl. Acad. Sci. USA 88: 9578-9582; Fields et al., 1994 Trends in Genetics 10: 286-292; and Gyuris et al., 1993 Cell 75: 791-803. The bait construct and prey cDNA libraries were transformed into yeast using standard procedures.
(§2) The frozen prey library was thawed, and the yeast cells reactivated by growing them in 150 ml YEPD medium with 2% glucose for 2 hrs at 30° C. A filter unit was sterilized with 70% ethanol and washed with sterile water to remove the ethanol. The cell densities of both bait and prey cultures were measured by determining the OD at 600 nm. An appropriate volume of yeast cells that corresponded to a cell number of 1 ml of OD 600=4 of each yeast strain, bait and prey (library) was placed in a 50 ml Falcon tube. The mixture was then filtered through the sterilized filter unit. The filter was then transferred onto a prewarmed YEPD agar plate with the cell side up, removing all air bubbles underneath the filter. Plates were then incubated at 30° C. for 6 hrs. One filter was transferred into a 50 ml Falcon tube, and 10 ml of SD with 2% Glucose was added; cells were resuspended by vortexing for 10 sec. […]

[2] = target: T2, Axin (AXIN) (Homo sapiens (Human), UniProt O15169 1-862, limits assumed)
T2 construct: Yeast two-hybrid prey
Description: as §1, §2

[3] = target: T3, Zyxin (ZYX) (Homo sapiens (Human), UniProt Q15942 2-572, limits assumed)
T3 construct: Yeast two-hybrid prey
T3 sequence: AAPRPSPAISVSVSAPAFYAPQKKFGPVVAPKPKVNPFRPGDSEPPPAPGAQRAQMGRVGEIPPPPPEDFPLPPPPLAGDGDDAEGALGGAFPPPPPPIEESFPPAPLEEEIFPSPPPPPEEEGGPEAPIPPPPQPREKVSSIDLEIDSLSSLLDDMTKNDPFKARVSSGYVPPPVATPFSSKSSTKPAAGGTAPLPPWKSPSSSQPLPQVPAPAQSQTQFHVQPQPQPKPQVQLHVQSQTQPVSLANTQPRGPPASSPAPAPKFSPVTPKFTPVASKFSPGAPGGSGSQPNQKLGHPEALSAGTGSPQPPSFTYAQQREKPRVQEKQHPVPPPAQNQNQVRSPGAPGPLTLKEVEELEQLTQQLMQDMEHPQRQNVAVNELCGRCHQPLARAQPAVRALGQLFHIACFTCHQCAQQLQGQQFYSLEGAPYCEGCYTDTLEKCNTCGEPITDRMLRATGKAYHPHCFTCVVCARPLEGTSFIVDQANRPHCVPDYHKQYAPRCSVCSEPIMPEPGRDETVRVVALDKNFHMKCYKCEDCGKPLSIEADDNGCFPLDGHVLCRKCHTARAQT
Description: as §1, §2

Measured: binding result

T2 sequence (O15169 other isoform, or with tags, fused parts or gaps limits assumed): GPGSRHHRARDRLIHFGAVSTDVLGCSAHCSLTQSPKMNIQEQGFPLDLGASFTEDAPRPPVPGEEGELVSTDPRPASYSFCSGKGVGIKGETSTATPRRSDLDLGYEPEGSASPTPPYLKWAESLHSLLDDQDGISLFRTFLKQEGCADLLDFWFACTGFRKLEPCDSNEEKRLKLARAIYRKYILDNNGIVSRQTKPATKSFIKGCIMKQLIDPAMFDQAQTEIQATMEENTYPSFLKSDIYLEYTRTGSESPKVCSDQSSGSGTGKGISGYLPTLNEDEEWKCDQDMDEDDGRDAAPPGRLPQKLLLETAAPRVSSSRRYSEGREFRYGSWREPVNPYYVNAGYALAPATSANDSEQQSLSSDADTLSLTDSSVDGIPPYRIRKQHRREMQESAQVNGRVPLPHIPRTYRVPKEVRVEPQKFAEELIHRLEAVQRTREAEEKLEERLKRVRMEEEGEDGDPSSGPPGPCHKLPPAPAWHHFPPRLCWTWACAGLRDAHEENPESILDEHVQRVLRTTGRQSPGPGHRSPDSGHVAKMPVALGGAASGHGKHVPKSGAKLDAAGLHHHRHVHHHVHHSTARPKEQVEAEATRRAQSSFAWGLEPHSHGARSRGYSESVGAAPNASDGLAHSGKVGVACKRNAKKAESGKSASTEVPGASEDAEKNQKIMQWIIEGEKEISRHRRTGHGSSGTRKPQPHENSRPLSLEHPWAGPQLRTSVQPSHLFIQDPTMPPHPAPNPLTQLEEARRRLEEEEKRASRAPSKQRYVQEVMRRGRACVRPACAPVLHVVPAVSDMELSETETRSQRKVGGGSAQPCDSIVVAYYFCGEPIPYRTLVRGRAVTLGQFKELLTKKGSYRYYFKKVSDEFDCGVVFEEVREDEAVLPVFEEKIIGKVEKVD
T1 sequence (P12814 whole entry): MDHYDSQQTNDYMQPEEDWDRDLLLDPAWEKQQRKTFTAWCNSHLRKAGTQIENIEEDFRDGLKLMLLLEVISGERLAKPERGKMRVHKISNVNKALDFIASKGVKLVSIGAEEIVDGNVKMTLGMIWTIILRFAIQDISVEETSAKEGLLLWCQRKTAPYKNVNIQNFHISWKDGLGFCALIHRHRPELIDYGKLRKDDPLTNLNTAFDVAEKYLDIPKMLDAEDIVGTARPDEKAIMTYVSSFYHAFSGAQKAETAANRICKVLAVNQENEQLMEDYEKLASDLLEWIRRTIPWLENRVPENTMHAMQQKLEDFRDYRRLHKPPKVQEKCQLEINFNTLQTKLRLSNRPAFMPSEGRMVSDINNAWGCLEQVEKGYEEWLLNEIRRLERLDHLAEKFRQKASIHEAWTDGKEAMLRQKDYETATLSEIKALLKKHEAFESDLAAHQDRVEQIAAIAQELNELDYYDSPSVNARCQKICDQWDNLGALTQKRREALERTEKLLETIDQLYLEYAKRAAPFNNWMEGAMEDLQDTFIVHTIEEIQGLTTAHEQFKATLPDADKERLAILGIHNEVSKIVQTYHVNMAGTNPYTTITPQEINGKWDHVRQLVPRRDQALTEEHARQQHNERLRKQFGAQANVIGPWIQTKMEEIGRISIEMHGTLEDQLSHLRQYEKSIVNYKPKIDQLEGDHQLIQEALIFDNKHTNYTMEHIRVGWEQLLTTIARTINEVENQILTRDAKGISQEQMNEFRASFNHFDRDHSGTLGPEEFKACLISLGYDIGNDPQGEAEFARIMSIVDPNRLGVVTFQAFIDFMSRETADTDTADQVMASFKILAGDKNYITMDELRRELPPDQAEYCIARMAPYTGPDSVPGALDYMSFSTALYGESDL

B1: Zmax1 (LRP5) cytoplasmic domain bait (entire cytoplasmic domain and a portion of the transmembrane domain) (receptor)
chain: RVVCQRYAGANGPFPHEYVSGTPHVPLNFIAPGGSQHGPFTGIACGKSMMSSVSLMGGRGGVPLYDRNHVTGASSSSSSSTKATLYPPILNPPPSPATDPSLYNMDMFYSSNIPATVRPYRPYIIRGMAPPTTPCSTDVCDSDYSASRWKASKYYLDLNSDSDPYPPPPTPHSQYLSAEDSCPPSPATERSYFHLFPPPPSPCTDSS
notes: Yeast two-hybrid bait; also called cytoplasmic domain of Zmax1 (LRP5); cytoplasmic domain of LRP5
binds: all assays above
